These results are taken from paper PMC6212770 (Nucleic Acids Research, 2018).

Numbering of substitutions follows the chain as printed.

Data set [1] concerns the target T1, HermesΔ transposase (UniProt Q25438 79-612, C519S;del497-516).
T1 sequence: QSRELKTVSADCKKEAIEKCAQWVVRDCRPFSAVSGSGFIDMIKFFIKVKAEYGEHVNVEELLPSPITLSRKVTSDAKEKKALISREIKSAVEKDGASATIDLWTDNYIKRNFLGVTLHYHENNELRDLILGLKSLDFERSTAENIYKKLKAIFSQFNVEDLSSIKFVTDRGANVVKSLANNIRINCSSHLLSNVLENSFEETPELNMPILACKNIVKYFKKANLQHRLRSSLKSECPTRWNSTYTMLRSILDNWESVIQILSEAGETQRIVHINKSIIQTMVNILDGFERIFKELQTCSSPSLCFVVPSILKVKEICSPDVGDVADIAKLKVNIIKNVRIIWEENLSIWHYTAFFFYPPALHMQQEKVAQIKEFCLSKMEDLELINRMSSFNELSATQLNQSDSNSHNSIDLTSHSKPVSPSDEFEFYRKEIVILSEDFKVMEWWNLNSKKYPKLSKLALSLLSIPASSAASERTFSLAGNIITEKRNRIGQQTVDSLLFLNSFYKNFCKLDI
In words: X-ray crystallography; no metal ions; Complex dialyzed at 4°C in 25 mM HEPES pH 7.5, 0.3 mM TCEP, 0.5 M then 250 mM NaCl, with or without 5 mM MgCl2; DNA:protein 1:1.05 as printed.

Data set [2] deals with the molecule itself. In words: crystal structure; HermesΔ co-crystallised with annealed DNA(C:G) or DNA(A:T) oligonucleotides, hanging drops at 4°C, with or without a soak in 8 mM CaCl2 or MnCl2; four structures at 2.85-3.2 Å.
Data set [3] concerns the target T1, HermesΔ transposase. Briefly: X-ray crystallography; 8 mM Mn2+ soak, 48 h; two Mn2+ in active site, third Mn2+ at N185; Complex dialyzed at 4°C in 25 mM HEPES pH 7.5, 0.3 mM TCEP, 0.5 M then 250 mM NaCl, with or without 5 mM MgCl2; DNA:protein 1:1.05 as printed.

B1: DNA(C:G) (dsDNA)
DNA 1: GCGTGAC
DNA 2: AGAGAACAACAACAAG
DNA 3: CTTGTTGTTGTTCTCTGGGTCACGC
Take B1: the binding result in the data set with HermesΔ transposase [1] is on record as “binds”.

B2: Hermes_(79-612Δ497-516) (enzyme, Musca domestica, UniProt Q25442 79-612, looked up)
chain: T1 sequence with K50G, S155L, M208V
B2: in data set [2], the binding result is “binds”.

B3: DNA(A:T) (dsDNA)
DNA 1: GCGTGAA
DNA 2: AGAGAACAACAACAAG
DNA 3: CTTGTTGTTGTTCTCTGGTTCACGC
In the case of B3, in the data set with HermesΔ transposase [3], the binding result was “binds”.
